Our source for the Kd values is paper doi:10.1101/2021.03.22.436414 (bioRxiv, 2021).

The data set concerns the molecule itself. In words: TIRF microscopy of filament lengths at steady state.

B1: Recombinant S. cerevisiae septin octamer capped with Cdc11-SNAP (Cdc11-Cdc12-Cdc3-Cdc10-Cdc10-Cdc3-Cdc12-Cdc11) (complex)
chain 1: MSGIIDASSALRKRKHLKRGITFTVMIVGQSGSGRSTFINTLCGQQVVDTSTTILLPTDTSTEIDLQLREETVELEDDEGVKIQLNIIDTPGFGDSLDNSPSFEIISDYIRHQYDEILLEESRVRRNPRFKDGRVHCCLYLINPTGHGLKEIDVEFIRQLGSLVNIIPVISKSDSLTRDELKLNKKLIMEDIDRWNLPIYNFPFDEDEISDEDYETNMYLRTLLPFAIIGSNEVYEMGGDVGTIRGRKYPWGILDVEDSSISDFVILRNALLISHLHDLKNYTHEILYERYRTEALSGESVAAESIRPNLTKLNGSSSSSTTTRRNTNPFKQSNNINNDVLNPASDMHGQSTGENNETYMTREEQIRLEEERLKAFEERVQQELLLKRQELLQREKELREIEARLEKEAKIKQEE
chain 2: MSAATATAAPVPPPVGISNLPNQRYKIVNEEGGTFTVMLCGESGLGKTTFINTLFQTVLKRADGQQHRQEPIRKTVEIDITRALLEEKHFELRVNVIDTPGFGDNVNNNKAWQPLVDFIDDQHDSYMRQEQQPYRTKKFDLRVHAVLYFIRPTGHGLKPIDIETMKRLSTRANLIPVIAKADTLTAQELQQFKSRIRQVIEAQEIRIFTPPLDADSKEDAKSGSNPDSAAVEHARQLIEAMPFAIVGSEKKFDNGQGTQVVARKYPWGLVEIENDSHCDFRKLRALLLRTYLLDLISTTQEMHYETYRRLRLEGHENTGEGNEDFTLPAIAPARKLSHNPRYKEEENALKKYFTDQVKAEEQRFRQWEQNIVNERIRLNGDLEEIQGKVKKLEEQVKSLQVKKSHLK
chain 3: MSLKEEQVSIKQDPEQEERQHDQFNDVQIKQESQDHDGVDSQYTNGTQNDDSERFEAAESDVKVEPGLGMGITSSQSEKGQVLPDQPEIKFIRRQINGYVGFANLPKQWHRRSIKNGFSFNLLCVGPDGIGKTTLMKTLFNNDDIEANLVKDYEEELANDQEEEEGQGEGHENQSQEQRHKVKIKSYESVIEENGVKLNLNVIDTEGFGDFLNNDQKSWDPIIKEIDSRFDQYLDAENKINRHSINDKRIHACLYFIEPTGHYLKPLDLKFMQSVYEKCNLIPVIAKSDILTDEEILSFKKTIMNQLIQSNIELFKPPIYSNDDAENSHLSERLFSSLPYAVIGSNDIVENYSGNQVRGRSYPWGVIEVDNDNHSDFNLLKNLLIKQFMEELKERTSKILYENYRSSKLAKLGIKQDNSVFKEFDPISKQQEEKTLHEAKLAKLEIEMKTVFQQKVSEKEKKLQKSETELFARHKEMKEKLTKQLKALEDKKKQLELSINSASPNVNHSPVPTKKKGFLR
chain 4: MDPLSSVQPASYVGFDTITNQIEHRLLKKGFQFNIMVVGQSGLGKSTLINTLFASHLIDSATGDDISALPVTKTTEMKISTHTLVEDRVRLNINVIDTPGFGDFIDNSKAWEPIVKYIKEQHSQYLRKELTAQRERFITDTRVHAILYFLQPNGKELSRLDVEALKRLTEIANVIPVIGKSDTLTLDERTEFRELIQNEFEKYNFKIYPYDSEELTDEELELNRSVRSIIPFAVVGSENEIEINGETFRGRKTRWSAINVEDINQCDFVYLREFLIRTHLQDLIETTSYIHYEGFRARQLIALKENANSRSSAHMSSNAIQR
modifications: Alexafluor488 dye on the SNAP tag
B1 returned a Kd of 84.5 ± 8.5 nM.

Usually Kd stands for the free concentration of one partner at which half of the binding sites on the other are occupied at equilibrium, for simple one-to-one binding. A low value points to tighter binding.
